# The DeepSol protein solubility set
# Experiment: soluble on expression in E. coli; label from the status in PepcDB or PDB records
row,Sequence,soluble on expression in E. coli
1,GAQLLGVHPKGESQRASRGGGQATKMSSAVGPRGPRPPTVPPPMQELPDLSHLTEEERNIIMAVMDRQKEEEEKEEAMLKCVVRDMAKPAACKTPRNAENQPHQPSPRLHQQFESYKEQVRKIGEEARRYQGEHKDDAPTCGICHKTKFADGCGHLCSYCRTKFCARCGGRVSLRSNNEDKVVMWVCNLCRKQQEILTKSGAWFFGSGPQQTSQDGTLSDTATGAGSEVPREKKARLQERSRSQTPLSTAAASSQDAAPPSAPPDRSKGAEPSQQALGPEQKQASSRSRSEPPRERKKTPGLSEQNGKGALKSERKRVPKTSAQPVEGAVEERERKERRESRRLEKGRSQDYPDTPEKRDEGKAADEEKQRKEEDYQTRYRSDPNLARYPVKPPPEEQQMRMHARVSRARHERRHSDVALPRTEAGAALPEGKAGKRAPAAARASPPDSPRAYSAERTAETRAPGAKQLTNHSPPAPRHGPVPAEAPELKAQEPLRKQSRLDPSSAVLMLRNDSLSSDQSESVRPSPPKPHRSKRGGKKRQMSVSSSEEEGVSTPEYTSCEDVELESESVSEKGDLDYYWLDPATWHSRETSPISSHPVTWQPSKEGDRLIGRVILNKRTTMPKDSGALLGLKVVGGKMTDLGRLGAFITKVKKGSLADVVGHLRAGDEVLEWNGKPLPGATNEEVYNIILESKSEPQVEIIVSRPIGDIPRIPESSHPPLESSSSSFESQKMERPSISVISPTSPGALKDAPQVLPGQLSVKLWYDKVGHQLIVNVLQATDLPARVDGRPRNPYVKMYFLPDRSDKSKRRTKTVKKILEPKWNQTFVYSHVHRRDFRERMLEITVWDQPRVQEEESEFLGEILIELETALLDDEPHWYKLQTHDESSLPLPQPSPFMPRRHIHGESSSKKLQRSQRISDSDISDYEVDDGIGVVPPVGYRSSARESKSTTLTVPEQQRTTHHRSRSVSPHRGNDQGKPRSRLPNVPLQRSLDEIHPTRRSRSPTRHHDASRSPVDHRTRDVDSQYLSEQDSELLMLPRAKRGRSAECLHTTR,soluble
2,MALDLTGYLDRINYRGATDPTLDVLRDLVSAHTGAIAFENLDPLMGVPVDDLSAEALADKLVDRRRGGYCYEHNGLIGYVLAELGYRVRRLAGRVVWLAPPDAPTPAQTHTVLAVTFPGCQGPYLVDVGFGGMTPTAPLRLETGTVQQTALEPYRLDDRGDGLVLQAMVRDEWQALYEFSTLTRPQVDLRVGSWFVSTHPTSHFVTGLMAATVADDARWNLMGRNLAIHRRGGTEKILLEDAAAVVDTLGDRFGINVADVGERGRLEARIDKVCFGAENR,soluble
3,MNLSTKQKQHLKGLAHPLKPVVLLGSNGLTEGVLAEIEQALEHHELIKVKIATEDRETKTLIVEAIVRETGACNVQVIGKTLVLYRPTKERKISLPR,not soluble
4,MAHHHHHHMGKLQAPCSPTVCGYPLPYPRSLSHNLFNVIQDTRRKGKTNTEQSELKNEGDPLTLSPIVPKVDTSPATESKGRRREEKPLAHEGQLLKHKLDVWRDLFLASAAQQLAASGHPRSRRDDAGNVFYSNISCYLKEGCIVKSEDTDLRTGPRDHLRVQGAYLSHLAPEAFANLHVTLDGNTFVLRNVQRTSPTIKQISEELCEERGIRLLPTAMQKKVAYLVSQVSTSTKERAGTISGKKGLATSKWKHTNSLQTCKHSLNMELPEVTYRSRVLSTIREGAYGSPFQKGCKM,not soluble
5,MHHISLTPFGRQPVTAGILASQRLAEARSPLPEIDKWALFADLRTARARFGVSDRDLAVLYALLSFLPGRVLTDAAPLVVFPSNATLSDRAHGMAESTLRRHLAALVEAGLVARRDSANGKRYAHRNRAGELVTAYGFDLRPLLVRAAEIAETAAALEAEAEAMARARTALVLKLRDATKLAAYADPEGRAAGIEPRLMPIRRALRRRLTLADLAEMARTLDLVLGDIRRTLALRAAEMDGTVGRIERHHTESKTESSDLEGGHACGKTSGEAEKDCRNIGGESPDEKANRPSPNRAEPDEARPEELASLEINDNQRPAPTLPLGLVLKACPDLEPYAPEIRNWRDLTAAASRLRGMMGITPSAWEEAKAEMGAETASVALAAILQRFASIRNPGGYLRALTRRASEGAFSPTPMIMALLAETREA,not soluble
6,VDNVLVIIGPTASGKTKLAIEIAKRANGEIISADSMQIYKYMDIGTAKPDEEEKEGIKHYLIDEVTPDEEFSVARFKELALKYIDEILSKGKLPIVAGGTGLYINSLIYNLEFSDTICDWELRKKLEQEAKEKGNEYLHNKLKEIDPKAAEKIHMNNVKRVIRAIEVYTYTKKPISVHQEESRKNPPRHNFILIGITMDREKLYDRINKRVDLMLEKGLVKEVEKLVEMGYDKSTIAMQGLGYKEILSYLRGERSLDEAVEILKRDTRRYAKRQMTWFRKIENVYWINKDEFDSDEKIIKNLKYYLATFGIFL,soluble
7,MFSEELEKIDWEETTKTIYSKTESDVLRALGKEHCDVDDFMALISPAAAKYLEPMAQLSKKYTEERFGKTISMFIPLYITNSCTNSCVYCGFHISNPMARTILTPEQIEDEYKAIKKLGPFENLLLVTGENPAKAGVPYLAKALDIAKKYFSNLKIEVMPLKAEEYAELKEHGLNGVICFQETYNKARYNIYHPRGMKSKFEWRVNGFDRMGQAGVHSIGMGVLIGLEEWRTDVTMMAYHLRYLQKKYWKTKYSVNFPRMRPAENGGFQPNVIMNDRELAQLTFAMRIFDHDVDISYSTREPAQIRDNMAGLGVTTMSAESKTEPGGYYTYPQALEQFHVSDERTAVEVEHALKSLGREPVWKDWDVSFDKFTPIR,not soluble
8,MHVNKKIIYVSHDAHFHGAQLLSLHTIKALKENFHYSVAIISIRTGILIHDFQKYGPVYCLEEDYPTENKVESLIKKLLSQDYTIAICSTVISGDIVALLAKHNIKVISLIHELPHLIQQYSAEGKARKIAESAHKIVFPSQYVYEKFHTITQLDHQKCHILPQGLFNHNPYKNNIAKARNELRKKHNLPLDSKIILGVGFADHRKGIDLFSLIAYSVRKIHKNIHFIWVGKTDVHFLNTLSQRYTAHFTLVEPTPDIGLYNAGADLYLLTSREDPFPNVVLEALDTKVPVIGFKNAGGFGDVVTEQTGALVDYLNLPMMLEKIYEFIGDEDLRLQKGTFGQELIEKNFNFLHYIYQLLNLLEHNYKKISVIVPNYNYEKYLSERVKSILNQTYPLYELIFLDDASTDNSVSIFEKLLSNENKHHLKIQQIINDKNSGSVFKQ,not soluble
9,MKKRIIPIFVPHKGCPHDCIFCNQKKITGVSTDVTSEDARNIIEECLETIDKDADVEIAFFGGSFTAIDIDIQKSLLSVAKEYVEKGLVKDIRMSTRPDCIDEDILSMLKEYKTSIIELGVQSLDEKVLLDSIRGHQSEIVYKSSKMIKNSGIKLGLQMMIGLPADTEEKCIFTAKKFVELKPDCVRVYPTLVVKDTGLEKLMEQNKYNPFTLEESVNIVKKVLVLFYVNNINVIRVGLQATDDIQIGKAVLAGPYHPAFRELVEADMIKDYLEFVILQNKNIKQMLVKSNKKNISKIIGNKKTNVKYMEEKFGVLLKTQESDLDINQLEIVLDGKSLISANMRDIHRKLYDIYDL,not soluble
10,MSKRTTPTYPVEVIRSDRRTRTVSARLVGGKILIRIPASMSKKDEKKFVAEMVDKVRTKTQSSAPTDEALLHRAQHLNRTVLENRATIGSIRWVTNQTRRWGSCSQTTNDIRISHRLQGVPDYVLDAVIIHEMVHTFIEGGHSPEFWQWADKAPKAERAKGYLEAWQRMGDVGLEHHHHHH,not soluble
11,MAHHHHHHMSLITTICRHPLASKRFMIVFRNEEGEELPEIFELRTRYEAIAPIAKGAYGFVCAATDNDLVENFHMSPPEEYNDPSLSKEERLDIYESHTTVAVKKLRQLFEQNRPRMWLCATREIQLMMAFKHENVMSALDFFIPLGDCERMTYESVEYLRHNFDSVYIVMKKMEYTLREVLESSVFTTTDTQDECGKLSNGKITSSAGTEKHDDGAHDDINKSTARRNERIARCPQTHLVLHPLARDYRMFILYQLLRGVGYMHLCLVIHRDIKPENIMLDRNYNTRVCDFGQGRDAVATELDGVLQTFLDNCTQWYAAPETLTLANVSSPSGFVDQKTLHAADVWSIGCIAAEMVIGRPLFYCRHSGGVGQLNAIMGVLGKIPEEAAERILQHRDEDTQKLFESVMRREMQQHLHKPSTLRRLLQSPYGDVDEEEIRLIERLLCYDPSQRITIQEALQSNYFINEGYEPVIDPDDTATHVRAVEAKEVVDAVRGRRFLWSLFLKHHPEVEELMRVLEIRRNSSSTDSTEVPPPACV,soluble
12,MGSDKIHHHHHHMHLGVVVPRVDDHSTIELAVEAEGHGYDSVWLNELWGASSVVELTDIATRTDDIEIGSAILNVFSRSPAVLAMTATTLDRVSDGRAVLGLGTSTARSIENMHSMEFERPVRRAHETIDIIKQLMTGDERVTYDGEAVSVRGVPPLDRDVPVYHAALGPANRRVVARLADGWLPHMIAFSELESAFDYIAETARDADRDPDDITVAPYVPAVVHEDSERATEELRQHIAYYVGSGEGYRRAVAETYPDRAERIADAWQAGDRGEATELVTDEMTADLGIAGTPEQAREKRDKIADRAVIDRLLLTVPQQVDGELARKTIRALGPN,not soluble
13,MGSDKIHHHHHHMALIITKKAADLPKPKKPVIGLALGSGAAKGWAHIGVLNGLAKLGIFPDKVAGCSVGALVGAAYANDNLDEIEKWVRGFSSWDVLGLMDIRWRKGGIINGEKVFEVLSSRVGALKIEQLKRAFAAVATDLYSGQEIWFREGDLRHAVRASCSMPGFLPPVQQDDRWLVDGAVVNPVPVSLCRAMGVDLVIAVDLNGHRRGQMMMLPEQVVSHQAEKSQTVTEKPQLESGFMDLWGKSKEYLSGLTEKFSLGVNSHPGMLAVMSQSMDILEQRHKRARLMGDPPDICIVPQVFDIGTMEFHRAAEAIAAGEQAVENISHLLKASIGDFDSAPQR,not soluble
14,MKTDGEFVSEHLMELITQQNLTINRVATLAGLNQSTVNAMFEGRSKRPTITTIRKVCGTLGISVHDFFDFPPYNEVEK,soluble
15,RNVDAALFGMISLYAQTKVIDTIIYGSDAGSKASIITAHPDEIAGRIIRELDRSATILPGKGAYSGRETSVVLCTVRKSEFARLKRIIHETDENAFVMVTETTEVIGLGFKDFSDAVQ,not soluble
16,MGSDKIHHHHHHMRKDVLEGVLLHIMNEIHPNFAALAKQYNCDYRTVKRYYEAGLTGDLDKLRERKPSVPPLLHGFEEIIRDKLELNCSAASIFYFLGKKDYKGSYTTIKRYCRKYREEKVQKATIRIETTPGLSAQVDWKENVKMVSRDGEVFYFNIFLYILGYSRMKYLELTFDRTQPTVFQCLVNAFEYCGNGIPQEIWFDNMKTVVDRSKSQFTQTVFNEKFRQFAKDAGFHPIACRPFRPQTKGKVEALARTVERLMVFNYEFTDVQELKQIIYELMQDLNGSVSQAIHNKPTVLLKEELPILAPIHRLELLSYVSRNKRLLRKVSMESMVQYQNAKYSVPVKYIGKEVTLDIRRDNLFVWYGDKCIRTHPISEKALNYQREDSLEILRSDVFKYLEDEELERFVDDNLHAYDDL,not soluble
17,MSLKPVVVMTQTNDMQSDLVSIIHKPFIDIKPLNFDIHLLNQRYDWLIFSSKNAVKFFYKYLKGINVDNIAVIGSKTAQYCESLGIRVDFMPNDFSQEGFLKSFNQTNQKILLPSSELARPLLLAALSKDNEVVKIDLYTSVPNKQNIQDVKEMIEHQQIDALTFSSSSAVRYYFNEGFVPKFKSYFAIGEQTARTIKTYQQPVTIAEIQTLESLIEKILESRGEGHHHHHH,soluble
18,DYVGGCLDFRPEEGIFRIARDMFTEPELFDLEMELIFEKNWIYACHESELARPHDFVTLRAGRQPLIVTRDGNGQLHALVNACQHRGATLVRVGKGNQSTFTCPFHAWCYKNDGRLVKVKAPGEYPEGFDKATRGLKKARIQSYRGFVFVSLDVAGEDDLVDFLGDARVFLDMLVAQSPSGELEVLPGTSTYTYEGNWKLQNENGLDGYHVSTVHYNYVATVQHRQQVEAERGGVAATLDYSKLGAGDAATDDGWFSFANGHSVLFSEMPNPAVRPGYASVMPRLVAEYGQARAEWMMHRLRNLNLYPSLFVIDQISSQLRIVRPLAWNRTEIVSQCIGVKGESDADRENRIRQFEDFFNVSGMGTPDDLVEFREAQRGFQARLERWSDISRGHGKWLEGATPNSQALGIAPLLTGTEITHEGLYVNQHAHWRRFLLDGLERLALRA,not soluble
